Target: HLCS-NLuc (Myc-HLCS fused to the N-terminal fragment of firefly luciferase) (human) (UniProt P50747)
Assay: split reporter

UniProt P50747, sequence (P50747 whole entry, the tested form may be a part): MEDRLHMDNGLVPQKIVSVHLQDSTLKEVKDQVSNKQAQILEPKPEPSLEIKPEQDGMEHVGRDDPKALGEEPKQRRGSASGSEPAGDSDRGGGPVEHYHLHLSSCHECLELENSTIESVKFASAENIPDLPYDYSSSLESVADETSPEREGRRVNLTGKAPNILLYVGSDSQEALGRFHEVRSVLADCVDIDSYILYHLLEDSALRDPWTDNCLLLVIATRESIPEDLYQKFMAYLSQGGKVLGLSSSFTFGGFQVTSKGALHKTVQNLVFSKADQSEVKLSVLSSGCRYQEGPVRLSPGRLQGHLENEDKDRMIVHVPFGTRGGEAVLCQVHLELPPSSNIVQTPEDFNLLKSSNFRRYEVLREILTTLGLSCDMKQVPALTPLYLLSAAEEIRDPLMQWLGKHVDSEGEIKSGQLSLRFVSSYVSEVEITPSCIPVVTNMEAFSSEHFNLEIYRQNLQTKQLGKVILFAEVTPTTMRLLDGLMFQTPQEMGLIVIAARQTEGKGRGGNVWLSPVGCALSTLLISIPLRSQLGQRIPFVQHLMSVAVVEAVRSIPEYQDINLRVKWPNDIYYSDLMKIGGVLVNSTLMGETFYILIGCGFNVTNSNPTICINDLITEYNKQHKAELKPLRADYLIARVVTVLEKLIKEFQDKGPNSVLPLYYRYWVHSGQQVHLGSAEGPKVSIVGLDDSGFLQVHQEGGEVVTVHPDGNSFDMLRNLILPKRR

Substance | luminescence signal, fold of TP53-NLuc plus CDK3-CLuc (negative control) | luminescence signal, fold of unfused NLuc plus CLuc (background control)
HDAC1Δ31-CLuc (Myc-HDAC1Δ31 fused to the C-terminal fragment of firefly luciferase) (enzyme) | 2.4 fold | 2.9 fold
N-CoR-CT-CLuc (Myc-N-CoR C-terminal domain fused to the C-terminal fragment of firefly luciferase) (domain or fragment) | 3.1 fold | 3.7 fold
